T1: FcgRIIaR (human, UniProt P12318 34-217)
T1 construct: extracellular domain; R131 allotype; also called FcγRIIa R; FcgRIIa type R; not shown: C-terminal His tag
T1 sequence (looked up): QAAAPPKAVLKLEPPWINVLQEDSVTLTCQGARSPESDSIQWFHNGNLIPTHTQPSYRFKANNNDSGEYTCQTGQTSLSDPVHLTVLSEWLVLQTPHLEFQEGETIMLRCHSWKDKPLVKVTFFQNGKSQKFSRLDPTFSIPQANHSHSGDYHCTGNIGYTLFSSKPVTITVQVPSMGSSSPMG

T2: FcgRIIb (human, UniProt P31994 43-217)
T2 construct: extracellular domain; also called FcγRIIb; CD32B; not shown: C-terminal His tag
T2 sequence (looked up): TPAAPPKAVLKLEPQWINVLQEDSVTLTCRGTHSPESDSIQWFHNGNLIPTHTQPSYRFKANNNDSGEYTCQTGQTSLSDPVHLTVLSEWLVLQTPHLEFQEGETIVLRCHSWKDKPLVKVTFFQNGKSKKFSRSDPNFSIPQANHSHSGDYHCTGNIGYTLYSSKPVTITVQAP

T3: FcgRIIaH (human, UniProt P12318 34-217)
T3 construct: extracellular domain; H131 allotype; also called FcγRIIa H; FcgRIIa type H; not shown: C-terminal His tag
T3 sequence (looked up): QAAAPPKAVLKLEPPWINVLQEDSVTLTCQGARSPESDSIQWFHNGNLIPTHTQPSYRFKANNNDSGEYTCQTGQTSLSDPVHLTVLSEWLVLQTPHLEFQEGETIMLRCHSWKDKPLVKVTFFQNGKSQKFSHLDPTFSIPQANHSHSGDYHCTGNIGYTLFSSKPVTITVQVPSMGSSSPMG


Assays:
FcgRIIaR [1] = target: T1, FcgRIIaR; assay: SPR (Biacore), antibody captured on chip, FcgR as analyte
Method: (§1) The variants described above were assessed for their binding to FcgR according to the method described in Reference Example 8.
(§2) Analysis of interaction between obj ective antibody and the FcγR was carried out using Biacore T100 (GE Healthcare), Biacore T200, Biacore A100, and Biacore 4000. HBS-EP+ (GE Healthcare) was used as the running buffer, and the measurement temperature was set to 25° C. Chips produced by immobilizing the antigen peptide by the amine coupling method to a Series S sensor Chip CM5 (GE Healthcare), chips produced by allowing preliminarily biotinylated antigen peptides to interact with and immobilize onto a Series S Sensor Chip SA (certified) (GE Healthcare), chips produced by immobilizing Protein L (ACTIGEN, BioVision) to Series S Sencor Chip CM5 (GE Healthcare), or chips produced by immobilizing Protein A/G (Thermo Scientific) to Series S Sencor Chip CM5 (GE Healthcare) were used. Antibodies of interest were captured onto these chips, and allowed to interact to each FcγR diluted with running buffer. To regenerate and repeatedly use the chip, the antibodies captured onto the chip were washed off by reacting 10 mM glycine-HCl, pH 1.5.

FcgRIIIaF [2] = target: T4, FcgRIIIaF (human, UniProt P08637 17-208); assay: as above
T4 construct: extracellular domain; F158 allotype; also called FcγRIIIa F; not shown: C-terminal His tag
T4 sequence (P08637 17-208): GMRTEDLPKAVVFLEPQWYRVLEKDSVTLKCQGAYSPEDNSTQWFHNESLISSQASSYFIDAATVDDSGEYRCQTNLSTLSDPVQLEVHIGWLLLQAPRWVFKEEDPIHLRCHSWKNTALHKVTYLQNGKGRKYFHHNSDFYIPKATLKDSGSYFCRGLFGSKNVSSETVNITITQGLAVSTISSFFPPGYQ
Method: as §1, §2

FcgRIa = target: T5, FcgRIa (human, UniProt P12314 16-292); assay: as above
T5 construct: extracellular domain; also called FcγRIa; FcγRI; not shown: C-terminal His tag
T5 sequence (P12314 16-292): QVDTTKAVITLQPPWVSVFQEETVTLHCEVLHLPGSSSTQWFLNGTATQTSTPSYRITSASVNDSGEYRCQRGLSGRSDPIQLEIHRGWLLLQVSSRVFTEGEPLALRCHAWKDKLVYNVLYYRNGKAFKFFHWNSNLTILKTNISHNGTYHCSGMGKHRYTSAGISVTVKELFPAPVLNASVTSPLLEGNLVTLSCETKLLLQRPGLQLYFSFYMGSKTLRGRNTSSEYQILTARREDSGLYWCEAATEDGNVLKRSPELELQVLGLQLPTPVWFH
Method: as §1, §2

FcgRIIb [3] = target: T2, FcgRIIb; assay: as above
Method: as §1, §2

FcgRIIIaV [4] = target: T6, FcgRIIIaV (human, UniProt P08637 17-208); assay: as above
T6 construct: extracellular domain; V158 allotype; also called FcγRIIIa V; not shown: C-terminal His tag
T6 sequence (P08637 17-208 F176V limits assumed): as the sequence (P08637 17-208) above, with F160V counted along it
Method: as §1, §2

FcgRIIaH [5] = target: T3, FcgRIIaH; assay: as above
Method: as §1, §2

FcgRIIaR [6] = target: T1, FcgRIIaR; assay: SPR (Biacore); KD of H240-Kn120/H240-Hl068/L73-k0 divided by KD of the sample
Method: as §1, §2

FcgRIIIaF [7] = target: T4, FcgRIIIaF; assay: as above
Method: as §1, §2

FcgRIIb [8] = target: T2, FcgRIIb; assay: as above
Method: as §1, §2

FcgRIIIaV [9] = target: T6, FcgRIIIaV; assay: as above
Method: as §1, §2

FcgRIIaH [10] = target: T3, FcgRIIaH; assay: as above
Method: as §1, §2

| Kd (FcgRIIaR [1]) [nM] | Kd (FcgRIIIaF [2]) [nM] | Kd (FcgRIa) [nM] | Kd (FcgRIIb [3]) [nM] | Kd (FcgRIIIaV [4]) [nM] | Kd (FcgRIIaH [5]) [nM] | Relative KD (FcgRIIaR [6]) | Relative KD (FcgRIIIaF [7]) | Relative KD (FcgRIIb [8]) | Relative KD (FcgRIIIaV [9]) | Relative KD (FcgRIIaH [10]) | Binder |
| --- | --- | --- | --- | --- | --- | --- | --- | --- | --- | --- | --- |
| 19 | 23 | 87 | 390 | 6.2 | 46 | 1.1 | 0.1 | 0.4 | 0.1 | 0.9 | H240-Kn120/H240-Hl085/L73-k0 (antibody, human IgG1, kappa, Heterodimerized anti-epiregulin antibody; G236V in the Hl068 chain; also called H240-Kn120/H240-HI085/L73-k0) heavy 1: QDQLVQSGAEVKKPGASVKVSCKASGFNIKDTYIQWVRQAPGQGLEWMGRIDPLRKQTKYREKFEGRVTITADTSTNTAYMELSSLRSEDTAVYYCVRSGREFDYWGQGTLVTVSSASTKGPSVFPLAPSSKSTSGGTAALGCLVKDYFPEPVTVSWNSGALTSGVHTFPAVLQSSGLYSLSSVVTVPSSSLGTQTYICNVNHKPSNTKVDKKVEPKSCDKTHTCPPCPAPEYYWGPMVFLFPPKPKDTLMISRTPEVTCVVVDVSDEDPEVKFNWYVDGVEVHNAKTKPREEQYNATYRVVSVLTVLHQDWLNGKEYKCKVSNKDLPAPIEKTISKAKGQPREPQVCTLPPSRDELTKNQVSLWCLVKGFYPSDIAVEWESNGQPENNYKTTPPVLDSDGSFFLYSKLTVDKSRWQQGNVFSCSVMHEALHNHYTQKSLSLSP heavy 2: QDQLVQSGAEVKKPGASVKVSCKASGFNIKDTYIQWVRQAPGQGLEWMGRIDPLRKQTKYREKFEGRVTITADTSTNTAYMELSSLRSEDTAVYYCVRSGREFDYWGQGTLVTVSSASTKGPSVFPLAPSSKSTSGGTAALGCLVKDYFPEPVTVSWNSGALTSGVHTFPAVLQSSGLYSLSSVVTVPSSSLGTQTYICNVNHKPSNTKVDKKVEPKSCDKTHTCPPCPAPELLVGPSVFLFPPKPKDTLMISRTPEVTCVVVDVSHEEPEVKFNWYVDGVEVHNAKTKPREEQYNSTYRVVSVLTVLHQDWLNGKEYKCKVSNDALPKPIEETISKAKGQPREPQVYTLPPSRCELTKNQVSLSCAVKGFYPSDIAVEWESNGQPENNYKTTPPVLDSDGSFFLVSKLTVDKSRWQQGNVFSCSVMHEALHNHYTQKSLSLSP light: DIQMTQSPSSLSASVGDRVTITCRASQDIHKYIAWYQQKPGQAPRLLIQYTSTLQPGVPSRFSGSGSGTDYTFTISSLQPEDIATYYCLQYEQLRTFGGGTKVEIKRTVAAPSVFIFPPSDEQLKSGTASVVCLLNNFYPREAKVQWKVDNALQSGNSQESVTEQDSKDSTYSLSSTLTLSKADYEKHKVYACEVTHQGLSSPVTKSFNRGEC |
| 22 | 33 | 1.4 | 480 | 14 | 53 | 0.9 | 0.1 | 0.3 | 0 | 0.8 | H240-Kn120/H240-Hl086/L73-k0 (antibody, human IgG1, kappa, Heterodimerized anti-epiregulin antibody; G236I in the Hl068 chain; also called H240-Kn120/H240-HI086/L73-k0) heavy 1: QDQLVQSGAEVKKPGASVKVSCKASGFNIKDTYIQWVRQAPGQGLEWMGRIDPLRKQTKYREKFEGRVTITADTSTNTAYMELSSLRSEDTAVYYCVRSGREFDYWGQGTLVTVSSASTKGPSVFPLAPSSKSTSGGTAALGCLVKDYFPEPVTVSWNSGALTSGVHTFPAVLQSSGLYSLSSVVTVPSSSLGTQTYICNVNHKPSNTKVDKKVEPKSCDKTHTCPPCPAPEYYWGPMVFLFPPKPKDTLMISRTPEVTCVVVDVSDEDPEVKFNWYVDGVEVHNAKTKPREEQYNATYRVVSVLTVLHQDWLNGKEYKCKVSNKDLPAPIEKTISKAKGQPREPQVCTLPPSRDELTKNQVSLWCLVKGFYPSDIAVEWESNGQPENNYKTTPPVLDSDGSFFLYSKLTVDKSRWQQGNVFSCSVMHEALHNHYTQKSLSLSP heavy 2: QDQLVQSGAEVKKPGASVKVSCKASGFNIKDTYIQWVRQAPGQGLEWMGRIDPLRKQTKYREKFEGRVTITADTSTNTAYMELSSLRSEDTAVYYCVRSGREFDYWGQGTLVTVSSASTKGPSVFPLAPSSKSTSGGTAALGCLVKDYFPEPVTVSWNSGALTSGVHTFPAVLQSSGLYSLSSVVTVPSSSLGTQTYICNVNHKPSNTKVDKKVEPKSCDKTHTCPPCPAPELLIGPSVFLFPPKPKDTLMISRTPEVTCVVVDVSHEEPEVKFNWYVDGVEVHNAKTKPREEQYNSTYRVVSVLTVLHQDWLNGKEYKCKVSNDALPKPIEETISKAKGQPREPQVYTLPPSRCELTKNQVSLSCAVKGFYPSDIAVEWESNGQPENNYKTTPPVLDSDGSFFLVSKLTVDKSRWQQGNVFSCSVMHEALHNHYTQKSLSLSP light: DIQMTQSPSSLSASVGDRVTITCRASQDIHKYIAWYQQKPGQAPRLLIQYTSTLQPGVPSRFSGSGSGTDYTFTISSLQPEDIATYYCLQYEQLRTFGGGTKVEIKRTVAAPSVFIFPPSDEQLKSGTASVVCLLNNFYPREAKVQWKVDNALQSGNSQESVTEQDSKDSTYSLSSTLTLSKADYEKHKVYACEVTHQGLSSPVTKSFNRGEC |
